We go through 3 molecules from article PMC8897147.

Common to all, as to assay: FRET or BRET
(BRET reads energy transfer from a luciferase to a nearby fluorophore.)

The target in assay [1] is T1, growth hormone-releasing hormone receptor-Rluc8, Q02643.
T1 chain: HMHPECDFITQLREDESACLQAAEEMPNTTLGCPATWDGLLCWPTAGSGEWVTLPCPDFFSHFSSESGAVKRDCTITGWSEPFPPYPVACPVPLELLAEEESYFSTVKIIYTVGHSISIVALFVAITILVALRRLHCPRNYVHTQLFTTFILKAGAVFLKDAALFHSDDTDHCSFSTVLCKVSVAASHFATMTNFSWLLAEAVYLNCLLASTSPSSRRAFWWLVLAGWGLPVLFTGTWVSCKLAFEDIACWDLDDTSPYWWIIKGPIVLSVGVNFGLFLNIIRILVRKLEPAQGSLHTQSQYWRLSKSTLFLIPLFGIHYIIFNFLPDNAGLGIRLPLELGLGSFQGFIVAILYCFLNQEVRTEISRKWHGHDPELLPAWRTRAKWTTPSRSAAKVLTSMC
To be noted: remark: other sources report otherwise.

In assay [2] the target is secretin receptor-Rluc8, P47872. To be noted: remark: other sources report otherwise.
secretin receptor-Rluc8, P47872, sequence (P47872 23-440): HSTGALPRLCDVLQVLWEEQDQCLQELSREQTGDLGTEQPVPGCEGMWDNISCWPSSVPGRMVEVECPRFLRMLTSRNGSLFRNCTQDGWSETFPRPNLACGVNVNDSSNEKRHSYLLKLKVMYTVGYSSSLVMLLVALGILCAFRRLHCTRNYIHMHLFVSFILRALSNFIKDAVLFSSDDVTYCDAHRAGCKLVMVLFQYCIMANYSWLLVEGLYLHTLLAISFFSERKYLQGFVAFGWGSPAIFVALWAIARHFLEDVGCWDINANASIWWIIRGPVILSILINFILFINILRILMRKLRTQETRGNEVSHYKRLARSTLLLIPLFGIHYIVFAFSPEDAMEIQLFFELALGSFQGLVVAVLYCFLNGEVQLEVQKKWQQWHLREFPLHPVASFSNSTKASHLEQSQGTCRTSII
Assay [3] has as its target T2, glucagon-like peptide-1 receptor-Rluc8, P43220.
T2 chain: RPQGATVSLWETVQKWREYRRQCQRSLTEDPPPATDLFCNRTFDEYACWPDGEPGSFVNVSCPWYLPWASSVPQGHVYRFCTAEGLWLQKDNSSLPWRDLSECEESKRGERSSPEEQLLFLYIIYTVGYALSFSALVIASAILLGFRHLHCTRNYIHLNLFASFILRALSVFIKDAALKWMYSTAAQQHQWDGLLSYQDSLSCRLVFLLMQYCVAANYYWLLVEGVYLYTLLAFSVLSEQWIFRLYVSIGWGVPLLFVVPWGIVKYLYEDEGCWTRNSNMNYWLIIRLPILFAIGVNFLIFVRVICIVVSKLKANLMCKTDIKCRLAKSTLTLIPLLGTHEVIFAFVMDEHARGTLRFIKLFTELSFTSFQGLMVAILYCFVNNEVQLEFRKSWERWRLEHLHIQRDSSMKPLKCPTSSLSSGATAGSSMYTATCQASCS
Conditions: remark: other sources report otherwise.

Assay [4] deals with SV1, splice variant of GHRHR, -Rluc8.

B1: RAMP1-Ypet (receptor activity-modulating protein 1), O60894 27-148 (natural protein)
chain: CQEANYGALLRELCLTQFQVDMEAVGETLWCDWGRTIRSYRELADCTWHMAEKLGCFWPNAEVDRFFLAVHGRYFRSCPISGRAVRDPPGSILYPFIVVPITVTLLVTALVVWQSKRTEGIV
On to B1, for which the BRET50 (Kd) (intensity ratio of RAMP:receptor) turned out to be 2.43 in assay [1], 1.3 in assay [2] and 10.9 in assay [3].

B2: RAMP2-Ypet (receptor activity-modulating protein 2), O60895 43-175 (natural protein)
chain: QPLPTTGTPGSEGGTVKNYETAVQFCWNHYKDQMDPIEKDWCDWAMISRPYSTLRDCLEHFAELFDLGFPNPLAERIIFETHQIHFANCSLVQPTFSDPPEDVLLAMIIAPICLIPFLITLVVWRSKDSEAQA
Consider B2, for which the figures for the BRET50 (Kd) (intensity ratio of RAMP:receptor) in assay [2] and in assay [3] were 2.41 and 2.23, respectively.

B3: RAMP3-Ypet (receptor activity-modulating protein 3) (natural protein)
chain: RAGGCNETGMLERLPLCGKAFADMMGKVDVWKWCNLSEFIVYYESFTNCTEMEANVVGCYWPNPLAQGFITGIHRQFFSNCTVDRVHLEDPPDEVLIPLIVIPVVLTVAMAGLVVWRSKRTDTLL
With B3, the BRET50 (Kd) (intensity ratio of RAMP:receptor) in assay [4] was found to be 5.98.
